From patent US20100272723A1 (Xencor, published 2010)
Residue numbers refer to the chain shown, from its start. In names and notes the source's numbering stands.

T1: human CD19 (human, UniProt P15391 20-556)
T1 construct: also called B-cell surface antigen B4; B-cell antigen CD19
T1 sequence: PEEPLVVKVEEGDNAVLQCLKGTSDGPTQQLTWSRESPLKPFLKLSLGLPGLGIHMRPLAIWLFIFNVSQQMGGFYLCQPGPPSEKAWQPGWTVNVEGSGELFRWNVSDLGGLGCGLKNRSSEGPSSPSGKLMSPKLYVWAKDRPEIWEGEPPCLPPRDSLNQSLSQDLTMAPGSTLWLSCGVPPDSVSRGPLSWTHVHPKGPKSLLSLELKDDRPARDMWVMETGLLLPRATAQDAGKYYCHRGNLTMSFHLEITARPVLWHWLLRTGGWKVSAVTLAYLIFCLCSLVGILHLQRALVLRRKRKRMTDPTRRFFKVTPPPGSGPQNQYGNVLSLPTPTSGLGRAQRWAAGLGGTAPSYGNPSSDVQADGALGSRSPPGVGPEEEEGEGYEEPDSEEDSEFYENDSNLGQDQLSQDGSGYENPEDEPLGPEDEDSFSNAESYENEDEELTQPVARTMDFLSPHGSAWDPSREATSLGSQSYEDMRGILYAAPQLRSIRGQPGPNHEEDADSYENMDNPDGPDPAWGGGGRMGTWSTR

B1: H1.52 / L1 (antibody, V domains shown)
VH: EVQLVESGGGLVKPGGSLKLSCAASGYTFTSYVMHWVRQAPGKGLEWIGYINPYNDGTKYNEKFQGRVTISSDKSISTAYMELSSLRSEDTAMYYCARGTYYYGTRVFDYWGQGTLVTVSS
VL: DIVMTQSPATLSLSPGERATLSCRSSKSLLNSNGNTYLYWFQQKPGQSPQLLIYRMSNLASGVPDRFSGSGSGTEFTLTISSLEPEDFAVYYCMQHLEYPFTFGAGTKLEIK
notes: vs H1L1 (Kabat): VH S100cT; also called 4G7 H1.52_L1
B2: H1 / L1.11 (antibody, V domains shown)
VH: B1 VH with T105S
VL: B1 VL with E98N
notes: vs H1L1 (Kabat): VL E93N; also called 4G7 H1_L1.11
B3: H1 / L1.124 (antibody, V domains shown)
VH: B1 VH with T105S
VL: B1 VL with L59W
notes: vs H1L1 (Kabat): VL L54W; also called 4G7 H1_L1.124
B4: H1.52 / L1.138 (antibody, V domains shown)
VH: B1 VH
VL: B1 VL with S32V, A60N
notes: vs H1L1 (Kabat): VH S100cT; VL S27eV/A55N; also called 4G7 H1.52_L1.138
B5: H1.52 / L1.139 (antibody, V domains shown)
VH: B1 VH
VL: B1 VL with S32V, F101N
notes: vs H1L1 (Kabat): VH S100cT; VL S27eV/F96N; also called 4G7 H1.52_L1.139
B6: H1.52 / L1.143 (antibody, V domains shown)
VH: B1 VH
VL: B1 VL with L30Q, A60N
notes: vs H1L1 (Kabat): VH S100cT; VL L27cQ/A55N; also called 4G7 H1.52_L1.143
B7: H1.52 / L1.145 (antibody, V domains shown)
VH: B1 VH
VL: B1 VL with L30Q, F101I
notes: vs H1L1 (Kabat): VH S100cT; VL L27cQ/F96I; also called 4G7 H1.52_L1.145
B8: H1.52 / L1.149 (antibody, V domains shown)
VH: B1 VH
VL: B1 VL with L30Q, A60N, F101I
notes: vs H1L1 (Kabat): VH S100cT; VL L27cQ/A55N/F96I; also called 4G7 H1.52_L1.149
B9: H1.52 / L1.155 (antibody, V domains shown)
VH: B1 VH
VL: B1 VL with L30Q, S32V, A60N, F101I
notes: vs H1L1 (Kabat): VH S100cT; VL L27cQ/S27eV/A55N/F96I; also called 4G7 H1.52_L1.155
B10: H1.52 / L1.160 (antibody, V domains shown)
VH: B1 VH
VL: B1 VL with L30Q, S32V, G34A, A60N, F101I
notes: vs H1L1 (Kabat): VH S100cT; VL L27cQ/S27eV/G29A/A55N/F96I; also called 4G7 H1.52_L1.160
B11: H1.60 / L1 (antibody, V domains shown)
VH: B1 VH with T105L
VL: B1 VL
notes: vs H1L1 (Kabat): VH S100cL; also called 4G7 H1.60_L1
B12: H1.62 / L1 (antibody, V domains shown)
VH: B1 VH with T105S, R106E
VL: B1 VL
notes: vs H1L1 (Kabat): VH R100dE; also called 4G7 H1.62_L1
B13: H1.65 / L1 (antibody, V domains shown)
VH: B1 VH with T105S, R106S
VL: B1 VL
notes: vs H1L1 (Kabat): VH R100dS; also called 4G7 H1.65_L1
B14: H1.78 / L1 (antibody, V domains shown)
VH: B1 VH with D56A, T105S
VL: B1 VL
notes: vs H1L1 (Kabat): VH D55A; also called 4G7 H1.78_L1
B15: H1.109 / L1 (antibody, V domains shown)
VH: B1 VH with T58P, T105S
VL: B1 VL
notes: vs H1L1 (Kabat): VH T57P; also called 4G7 H1.109_L1
B16: H1.113 / L1 (antibody, V domains shown)
VH: B1 VH with T58H, T105S
VL: B1 VL
notes: vs H1L1 (Kabat): VH T57H; also called 4G7 H1.113_L1
B17: H1.144 / L1 (antibody, V domains shown)
VH: B1 VH with T105S, D109N
VL: B1 VL
notes: vs H1L1 (Kabat): VH D101N; also called 4G7 H1.144_L1
B18: H1.146 / L1 (antibody, V domains shown)
VH: B1 VH with T105S, D109H
VL: B1 VL
notes: vs H1L1 (Kabat): VH D101H; also called 4G7 H1.146_L1
B19: H1.147 / L1 (antibody, V domains shown)
VH: B1 VH with T105S, D109S
VL: B1 VL
notes: vs H1L1 (Kabat): VH D101S; also called 4G7 H1.147_L1
B20: H1.191 / L1.149 (antibody, V domains shown)
VH: B1 VH with K59E
VL: B1 VL with L30Q, A60N, F101I
notes: vs H1L1 (Kabat): VH K58E/S100cT; VL L27cQ/A55N/F96I; also called 4G7 H1.191_L1.149
B21: H1.191 / L1.155 (antibody, V domains shown)
VH: B1 VH with K59E
VL: B1 VL with L30Q, S32V, A60N, F101I
notes: vs H1L1 (Kabat): VH K58E/S100cT; VL L27cQ/S27eV/A55N/F96I; also called 4G7 H1.191_L1.155
B22: H1.191 / L1.160 (antibody, V domains shown)
VH: B1 VH with K59E
VL: B1 VL with L30Q, S32V, G34A, A60N, F101I
notes: vs H1L1 (Kabat): VH K58E/S100cT; VL L27cQ/S27eV/G29A/A55N/F96I; also called 4G7 H1.191_L1.160
B23: H1.191 / L1.161 (antibody, V domains shown)
VH: B1 VH with K59E
VL: B1 VL with L30Q, S32V, G34S, A60N, F101I
notes: vs H1L1 (Kabat): VH K58E/S100cT; VL L27cQ/S27eV/G29S/A55N/F96I; also called 4G7 H1.191_L1.161
B24: H1.192 / L1.141 (antibody, V domains shown)
VH: B1 VH with T58P
VL: B1 VL with A60N, F101N
notes: vs H1L1 (Kabat): VH T57P/S100cT; VL A55N/F96N; also called 4G7 H1.192_L1.141
B25: H1.192 / L1.144 (antibody, V domains shown)
VH: B1 VH with T58P
VL: B1 VL with L30Q, F101N
notes: vs H1L1 (Kabat): VH T57P/S100cT; VL L27cQ/F96N; also called 4G7 H1.192_L1.144
B26: H1.192 / L1.146 (antibody, V domains shown)
VH: B1 VH with T58P
VL: B1 VL with S32V, A60N, F101N
notes: vs H1L1 (Kabat): VH T57P/S100cT; VL S27eV/A55N/F96N; also called 4G7 H1.192_L1.146
B27: H1.192 / L1.148 (antibody, V domains shown)
VH: B1 VH with T58P
VL: B1 VL with L30Q, A60N, F101N
notes: vs H1L1 (Kabat): VH T57P/S100cT; VL L27cQ/A55N/F96N; also called 4G7 H1.192_L1.148
B28: H1.192 / L1.152 (antibody, V domains shown)
VH: B1 VH with T58P
VL: B1 VL with L30Q, S32V, F101N
notes: vs H1L1 (Kabat): VH T57P/S100cT; VL L27cQ/S27eV/F96N; also called 4G7 H1.192_L1.152
B29: H1.192 / L1.154 (antibody, V domains shown)
VH: B1 VH with T58P
VL: B1 VL with L30Q, S32V, A60N, F101N
notes: vs H1L1 (Kabat): VH T57P/S100cT; VL L27cQ/S27eV/A55N/F96N; also called 4G7 H1.192_L1.154
B30: H1.196 / L1 (antibody, V domains shown)
VH: B1 VH with T58P, R106S
VL: B1 VL
notes: vs H1L1 (Kabat): VH T57P/S100cT/R100dS; also called 4G7 H1.196_L1
B31: H1.196 / L1.146 (antibody, V domains shown)
VH: B1 VH with T58P, R106S
VL: B1 VL with S32V, A60N, F101N
notes: vs H1L1 (Kabat): VH T57P/S100cT/R100dS; VL S27eV/A55N/F96N; also called 4G7 H1.196_L1.146
B32: H1.196 / L1.152 (antibody, V domains shown)
VH: B1 VH with T58P, R106S
VL: B1 VL with L30Q, S32V, F101N
notes: vs H1L1 (Kabat): VH T57P/S100cT/R100dS; VL L27cQ/S27eV/F96N; also called 4G7 H1.196_L1.152
B33: H1.196 / L1.154 (antibody, V domains shown)
VH: B1 VH with T58P, R106S
VL: B1 VL with L30Q, S32V, A60N, F101N
notes: vs H1L1 (Kabat): VH T57P/S100cT/R100dS; VL L27cQ/S27eV/A55N/F96N; also called 4G7 H1.196_L1.154

Target: T1, human CD19
Experiment: binding affinity relative to the parent H1L1 mAb (Example 5); assay and format not named on the sheet

Binder | Fold change binding [fold]
B1 | 3.22
B2 | 1.59
B3 | 1.47
B4 | 3.93
B5 | 1.8
B6 | 3.83
B7 | 6.41
B8 | 8.6
B9 | 6.16
B10 | 4.18
B11 | 1.56
B12 | 1.65
B13 | 1.41
B14 | 1.14
B15 | 1.52
B16 | 1.29
B17 | 2.26

Binder | Fold change binding [fold]
B18 | 2.45
B19 | 2.65
B20 | 6.02
B21 | 4.56
B22 | 2.91
B23 | 3.97
B24 | 2.57
B25 | 3.63
B26 | 3.19
B27 | 4.63
B28 | 2.98
B29 | 5.12
B30 | 3.42
B31 | 3.57
B32 | 4.36
B33 | 4.44
